Here are results for 13 sequences from the supplement of paper PMC9170038.

This data set relates to K4 kissing-loop RNA reporter. Briefly: apparent KD of K4 kissing-loop reporter; higher = weaker reporter binding. The note with it: Eterna round: R107. As for the experimental part:
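RNA-MaP round R107: designed RNA switches with theophylline, tryptophan, arginine or FMN aptamers are transcribed on-chip within common flanks. They are titrated with a labelled K4 kissing-loop RNA reporter in RNA-MaP buffer (100 mM Tris pH 7.5, 80 mM KCl, 4 mM MgCl2), without ligand or with the indicated ligand. Median apparent KD per design.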

The mark [1] stands for this setting: input ligand: theophylline 20 uM.
[2] abbreviates: input ligand: tryptophan 2.4 mM.
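Note: bound reporter read as fluorescence of individual clusters on recovered sequencing chips by microscopy, with normalized cluster intensities fitted with a binding model.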

For “AAAAUAAACCAGUGAUGUUGGUGUCCGGAUACCAGCGAUAAUCAUCGCCCUUGGCAGCCGCGGACGUACAAAAUAAGUACGUCCU [MatMod 13 - Jieux - Same State - Theophylline A]”, the “apparent KD of K4 kissing-loop reporter” value runs as follows: (input ligand: FMN 200 uM) 457 nM; (input ligand: arginine 13.2 mM) 271 nM; (input ligand: none) 346 nM; under setting [1], 310 nM; under setting [2], 256 nM.
“AAAAUAAAGCAGUGAUGUUGCUUAUGAGAAGGAGCGCACGAAAGUGCAGGUAGGUCGCUCAGCCAAGUGGACGAAAACGUCCACA [#OpenEnded 10 #K4Early]”: the “apparent KD of K4 kissing-loop reporter” value stood at 112 nM (input ligand: FMN 200 uM); 122 nM (input ligand: arginine 13.2 mM); 123 nM (input ligand: none); 144 nM under setting [1]; 90.4 nM under setting [2].
On to “AAAAUAAGCCAGUGAUGUUGGGAUCCAGAUACCAGCGACGAAAGUCGCCCUUGGCAGCUGUGGACGUACAAAAUAAGUACGUCCU”, for which the “apparent KD of K4 kissing-loop reporter” value came to 924 nM (input ligand: FMN 200 uM); 706 nM (input ligand: arginine 13.2 mM); 1040 nM (input ligand: none); 927 nM under setting [1]; 992 nM under setting [2].
As for “AAAAUUAACAAGAGUGAUGUUCUUGUUAGACAGGAUAUCGGUUUAACGAGAAGGGUCGUGGCUCCAUUGGGCCCAGUGGUUCACC [Mazareri]”, the “apparent KD of K4 kissing-loop reporter” value by setting is: (input ligand: FMN 200 uM) 309 nM; (input ligand: arginine 13.2 mM) 478 nM; (input ligand: none) 687 nM; under setting [1], 326 nM; under setting [2], 439 nM.
For the sequence “AAACAACUUGACGAUACCAGCUUACUCGGCAAGCCAGUGAUGUUGGUGAAAAGGAGUCAAAGCCCUUGGCAGCGUCGAAGGUCUG [Raatarerin]”, the “apparent KD of K4 kissing-loop reporter” value (input ligand: FMN 200 uM) was determined as 271 nM; the “apparent KD of K4 kissing-loop reporter” value (input ligand: arginine 13.2 mM) came out at 240 nM; the “apparent KD of K4 kissing-loop reporter” value (input ligand: none) stood at 304 nM; the “apparent KD of K4 kissing-loop reporter” value under setting [1] was 119 nM; the “apparent KD of K4 kissing-loop reporter” value under setting [2] amounted to 258 nM.
In the same order, the values of “AAACGCUUGAAUAACAAGCGAAAUAAAAUUCGAGGACCGGUACGGCCGCCACUCGGGCUAACUGCGAGUGAUGUUCGAAAAUAAA [Mat - Mod of OpenEnded 3 - D17]” are 156 nM, 191 nM, 257 nM, 405 nM and 73.2 nM.
In the same order, the values of “AAACGUUGUUGCGAUACCAGCUGAUCGGAAACGAUCAUGCUGGAGUGAUGUUCCAGGAAAAGCCCUUGGCAGCGCAACGACGAAA [MAT - Same State Theophlline B - Mod of Eli - D30]” are 276 nM, 134 nM, 228 nM, 296 nM and 179 nM.
For “AAACUACGUGACGAUACCAGCUUACUCGGCAAGCCAGUGAUGUUGGUGAAAAGGAGUCAAAGCCCUUGGCAGCGUCGAAGGUUUG [Usandiat]”, the “apparent KD of K4 kissing-loop reporter” value was found to be 257 nM (input ligand: FMN 200 uM); 215 nM (input ligand: arginine 13.2 mM); 252 nM (input ligand: none); 129 nM under setting [1]; 255 nM under setting [2].
For “AAACUUGCAGUGAUGUUGCAAGUAGGUGAUACCAGCAUCGAAAGAUGCCCUUGGCAGCACCAACACUGUAAGUAAGUAUCACCAA [(H1)-(H2)-(T1)-(T2)-(H)'-(T)'_Design2]”, the “apparent KD of K4 kissing-loop reporter” value is, setting by setting: (input ligand: FMN 200 uM) 110 nM; (input ligand: arginine 13.2 mM) 120 nM; (input ligand: none) 117 nM; under setting [1], 139 nM; under setting [2], 105 nM.
For “AAACUUGCAGUGAUGUUGCAAGUAGGUGAUACCAGCAUCGAAAGAUGCCCUUGGCAGCACCAUCACUGUAAGUAGGUGCUGUCAA [(H1)-(H2)-(T1)-(T2)-(H)'-(T)'_Design5]”, the “apparent KD of K4 kissing-loop reporter” value is, setting by setting: (input ligand: FMN 200 uM) 99.3 nM; (input ligand: arginine 13.2 mM) 88.5 nM; (input ligand: none) 105 nM; under setting [1], 111 nM; under setting [2], 103 nM.
“AAAGAUCUUCUAGAAACUAGAAGAUCAAGAGAGGAUAUCCGAAUUCGGAGAAGGCUCACUAAGUGAUGUUUGGACCCAAAGGGAA [AK3 SS FMN A]”: the “apparent KD of K4 kissing-loop reporter” value is 1460 nM (input ligand: FMN 200 uM); 1520 nM (input ligand: arginine 13.2 mM); 1650 nM (input ligand: none); 1600 nM under setting [1]; 1030 nM under setting [2].
Consider “AAAGUGUCAGCACGAGUGAUGUUCGUGGAUACCAGCCUCGAUAAAGGCCCUUGGCAGCCGAAAAGUCAAGGGCUGGCACAUAAAA [KL-XTheo-A11]”, for which the “apparent KD of K4 kissing-loop reporter” value is, setting by setting: (input ligand: FMN 200 uM) 216 nM; (input ligand: arginine 13.2 mM) 205 nM; (input ligand: none) 251 nM; under setting [1], 341 nM; under setting [2], 226 nM.
On to “AAAUAAAUCACGGCCGCCACUGUAAGUUGAAGUGAUGUUUCAAGAUAUAGUAUGUUUUAUAAUAUCAGGACCGGGUGAUUUUUAA [JR_SSTryptoB_Sub021]”, for which the “apparent KD of K4 kissing-loop reporter” value runs as follows: (input ligand: FMN 200 uM) 147 nM; (input ligand: arginine 13.2 mM) 103 nM; (input ligand: none) 133 nM; under setting [1], 115 nM; under setting [2], 119 nM.
